Measurements as given in patent US20130157929A1, “GLUCAGON ANALOGUES” (ZEALAND PHARMA A/S, published 2013).
Starred links: 1 amine or outer side, 2 acyl side, 3 side chain; linkers in the order of their positions; H or OH if unused. Non-standard residues stand in square brackets, D forms with d. Groups on a side chain read outwards from the residue. *: point of attachment. γGlu = O=C(O)[C@H](CCC(=O)[*:2])N[*:1]; Palmitoyl = CCCCCCCCCCCCCCCC(=O)*; Aib = CC(C)(N)C(=O)O

B1: human GLP-1 (ligand)
peptide: RSLQDTEEKSRSFSASQADPLSDPDQMNEDKRHSQGTFTSDYSKYLDSRRAQDFVQWLMNTKRNRNNIAKRHDEFERHAEGTFTSDVSSYLEGQAAKEFIAWLVKGRGRRDFPEEVAIVEELGRRHADGSFSDEMNTILDNLAARDFINWLIQTKITDRK
B2: Compound 7 (peptide)
peptide: H-H[Aib]EGTFTSDYSKYLDSK([γGlu-Palmitoyl])AAHDFVEWLLSA-NH2
SMILES: CCCCCCCCCCCCCCCC(=O)N[C@@H](CCC(=O)NCCCC[C@H](NC(=O)[C@H](CO)NC(=O)[C@H](CC(=O)O)NC(=O)[C@H](CC(C)C)NC(=O)[C@H](Cc1ccc(O)cc1)NC(=O)[C@H](CCCCN)NC(=O)[C@H](CO)NC(=O)[C@H](Cc1ccc(O)cc1)NC(=O)[C@H](CC(=O)O)NC(=O)[C@H](CO)NC(=O)[C@@H](NC(=O)[C@H](Cc1ccccc1)NC(=O)[C@@H](NC(=O)CNC(=O)[C@H](CCC(=O)O)NC(=O)C(C)(C)NC(=O)[C@@H](N)Cc1c[nH]cn1)[C@@H](C)O)[C@@H](C)O)C(=O)N[C@@H](C)C(=O)N[C@@H](C)C(=O)N[C@@H](Cc1c[nH]cn1)C(=O)N[C@@H](CC(=O)O)C(=O)N[C@@H](Cc1ccccc1)C(=O)N[C@H](C(=O)N[C@@H](CCC(=O)O)C(=O)N[C@@H](Cc1c[nH]c2ccccc12)C(=O)N[C@@H](CC(C)C)C(=O)N[C@@H](CC(C)C)C(=O)N[C@@H](CO)C(=O)N[C@@H](C)C(N)=O)C(C)C)C(=O)O
B3: Compound 4 (peptide)
peptide: H-H[Aib]PGTFTSDYSKYLDSK([γGlu-Palmitoyl])AAHDFVEWLLSA-NH2
SMILES: CCCCCCCCCCCCCCCC(=O)N[C@@H](CCC(=O)NCCCC[C@H](NC(=O)[C@H](CO)NC(=O)[C@H](CC(=O)O)NC(=O)[C@H](CC(C)C)NC(=O)[C@H](Cc1ccc(O)cc1)NC(=O)[C@H](CCCCN)NC(=O)[C@H](CO)NC(=O)[C@H](Cc1ccc(O)cc1)NC(=O)[C@H](CC(=O)O)NC(=O)[C@H](CO)NC(=O)[C@@H](NC(=O)[C@H](Cc1ccccc1)NC(=O)[C@@H](NC(=O)CNC(=O)[C@@H]1CCCN1C(=O)C(C)(C)NC(=O)[C@@H](N)Cc1c[nH]cn1)[C@@H](C)O)[C@@H](C)O)C(=O)N[C@@H](C)C(=O)N[C@@H](C)C(=O)N[C@@H](Cc1c[nH]cn1)C(=O)N[C@@H](CC(=O)O)C(=O)N[C@@H](Cc1ccccc1)C(=O)N[C@H](C(=O)N[C@@H](CCC(=O)O)C(=O)N[C@@H](Cc1c[nH]c2ccccc12)C(=O)N[C@@H](CC(C)C)C(=O)N[C@@H](CC(C)C)C(=O)N[C@@H](CO)C(=O)N[C@@H](C)C(N)=O)C(C)C)C(=O)O
B4: Compound 8 (peptide)
peptide: H-H[Aib]QATFTSDYSKYLDSK([γGlu-Palmitoyl])AAHDFVEWLLSA-NH2
SMILES: CCCCCCCCCCCCCCCC(=O)N[C@@H](CCC(=O)NCCCC[C@H](NC(=O)[C@H](CO)NC(=O)[C@H](CC(=O)O)NC(=O)[C@H](CC(C)C)NC(=O)[C@H](Cc1ccc(O)cc1)NC(=O)[C@H](CCCCN)NC(=O)[C@H](CO)NC(=O)[C@H](Cc1ccc(O)cc1)NC(=O)[C@H](CC(=O)O)NC(=O)[C@H](CO)NC(=O)[C@@H](NC(=O)[C@H](Cc1ccccc1)NC(=O)[C@@H](NC(=O)[C@H](C)NC(=O)[C@H](CCC(N)=O)NC(=O)C(C)(C)NC(=O)[C@@H](N)Cc1c[nH]cn1)[C@@H](C)O)[C@@H](C)O)C(=O)N[C@@H](C)C(=O)N[C@@H](C)C(=O)N[C@@H](Cc1c[nH]cn1)C(=O)N[C@@H](CC(=O)O)C(=O)N[C@@H](Cc1ccccc1)C(=O)N[C@H](C(=O)N[C@@H](CCC(=O)O)C(=O)N[C@@H](Cc1c[nH]c2ccccc12)C(=O)N[C@@H](CC(C)C)C(=O)N[C@@H](CC(C)C)C(=O)N[C@@H](CO)C(=O)N[C@@H](C)C(N)=O)C(C)C)C(=O)O
B5: Compound 9 (peptide)
peptide: H-HSQ[Aib]TFTSDYSKYLDSK([γGlu-Palmitoyl])AAHDFVEWLLSA-NH2
SMILES: CCCCCCCCCCCCCCCC(=O)N[C@@H](CCC(=O)NCCCC[C@H](NC(=O)[C@H](CO)NC(=O)[C@H](CC(=O)O)NC(=O)[C@H](CC(C)C)NC(=O)[C@H](Cc1ccc(O)cc1)NC(=O)[C@H](CCCCN)NC(=O)[C@H](CO)NC(=O)[C@H](Cc1ccc(O)cc1)NC(=O)[C@H](CC(=O)O)NC(=O)[C@H](CO)NC(=O)[C@@H](NC(=O)[C@H](Cc1ccccc1)NC(=O)[C@@H](NC(=O)C(C)(C)NC(=O)[C@H](CCC(N)=O)NC(=O)[C@H](CO)NC(=O)[C@@H](N)Cc1c[nH]cn1)[C@@H](C)O)[C@@H](C)O)C(=O)N[C@@H](C)C(=O)N[C@@H](C)C(=O)N[C@@H](Cc1c[nH]cn1)C(=O)N[C@@H](CC(=O)O)C(=O)N[C@@H](Cc1ccccc1)C(=O)N[C@H](C(=O)N[C@@H](CCC(=O)O)C(=O)N[C@@H](Cc1c[nH]c2ccccc12)C(=O)N[C@@H](CC(C)C)C(=O)N[C@@H](CC(C)C)C(=O)N[C@@H](CO)C(=O)N[C@@H](C)C(N)=O)C(C)C)C(=O)O
B6: Compound 5 (peptide)
peptide: H-H[Aib]HGTFTSDYSKYLDSK([γGlu-Palmitoyl])AAHEFVEWLLEA-NH2
SMILES: CCCCCCCCCCCCCCCC(=O)N[C@@H](CCC(=O)NCCCC[C@H](NC(=O)[C@H](CO)NC(=O)[C@H](CC(=O)O)NC(=O)[C@H](CC(C)C)NC(=O)[C@H](Cc1ccc(O)cc1)NC(=O)[C@H](CCCCN)NC(=O)[C@H](CO)NC(=O)[C@H](Cc1ccc(O)cc1)NC(=O)[C@H](CC(=O)O)NC(=O)[C@H](CO)NC(=O)[C@@H](NC(=O)[C@H](Cc1ccccc1)NC(=O)[C@@H](NC(=O)CNC(=O)[C@H](Cc1c[nH]cn1)NC(=O)C(C)(C)NC(=O)[C@@H](N)Cc1c[nH]cn1)[C@@H](C)O)[C@@H](C)O)C(=O)N[C@@H](C)C(=O)N[C@@H](C)C(=O)N[C@@H](Cc1c[nH]cn1)C(=O)N[C@@H](CCC(=O)O)C(=O)N[C@@H](Cc1ccccc1)C(=O)N[C@H](C(=O)N[C@@H](CCC(=O)O)C(=O)N[C@@H](Cc1c[nH]c2ccccc12)C(=O)N[C@@H](CC(C)C)C(=O)N[C@@H](CC(C)C)C(=O)N[C@@H](CCC(=O)O)C(=O)N[C@@H](C)C(N)=O)C(C)C)C(=O)O

Assays:
[1] = target: human glucagon receptor (glucagon-R) (human, UniProt P47871); test: cell-based or functional assay
[2] = target: human glucagon-like peptide 1 receptor (GLP-1R) (human, UniProt P43220); test: cell-based or functional assay

Row | Binder | EC50 (nM) GluR, cAMP formation [1] | EC50 (nM) GLP-1R, cAMP formation [2] | EC50 (nM) GluR, cAMP formation, earlier determination [1]
1 | B1 | 100000 nM |  | 
2 | B2 | 26 nM | 0.01 nM | 
3 | B3 | 0.48 nM | 0.1 nM | 
4 | B4 | 3 nM | 8.2 nM | 23 nM
5 | B5 | 30 nM | 16 nM | 
6 | B6 | 0.15 nM | 0.16 nM | 
